# Results as given in publication doi:10.1101/2024.07.08.602551.
# Tests used:
# [1] = molecular target: human Twisted gastrulation Leu107Ala (human) (UniProt Q9GZX9); assay: SPR
# [2] = molecular target: human Twisted gastrulation (residues Cys26-Phe223) (human) (UniProt Q9GZX9); assay: SPR
# human Twisted gastrulation (residues Cys26-Phe223) (human), sequence (Q9GZX9 26-223): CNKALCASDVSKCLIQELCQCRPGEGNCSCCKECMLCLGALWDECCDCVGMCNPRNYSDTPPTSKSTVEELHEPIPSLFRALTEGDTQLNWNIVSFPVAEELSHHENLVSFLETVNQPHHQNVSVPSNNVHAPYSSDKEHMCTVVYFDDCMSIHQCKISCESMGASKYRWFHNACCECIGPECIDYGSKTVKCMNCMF
# human Twisted gastrulation Leu107Ala (human), sequence (Q9GZX9 26-223 L107A): as the sequence (Q9GZX9 26-223) above, with L82A counted along it
substance,measurement,setting,value
human CHRDL2 (Arg24-Thr429) (natural protein),Kd,[1],11 nM
same,Kd,[2],5 nM
